One assay deals with human CD33 K52F (human) (UniProt P20138). Nature of the assay: flow cytometry, transfected cells, IgG.
A further assay deals with human CD33 L134R (human) (UniProt P20138). Nature of the assay: flow cytometry, transfected cells, IgG. (Flow cytometry measures light scatter and fluorescence of single cells or particles in a stream.)
Assay [1] has as its target human CD33 C212A (human) (UniProt P20138). Nature of the assay: alanine scan, flow cytometry.
Assay [2] addresses human CD33 F44A (human) (UniProt P20138). Nature of the assay: flow cytometry, alanine scan.
For another assay, the target named is human CD33 Q24A (human) (UniProt P20138). Nature of the assay: flow cytometry, alanine scan.
Another assay has as its target human CD33 Q26A (human) (UniProt P20138). The assay can be described thus: flow cytometry, alanine scan.
The target of another assay is human CD33 V25A (human) (UniProt P20138). The assay can be described thus: flow cytometry, alanine scan.
The next assay has as its target human CD33 L134A (human) (UniProt P20138). The assay can be described thus: alanine scan, flow cytometry, HEK293-T.
Assay [3] deals with human CD33 Y129A (human) (UniProt P20138). The assay can be described thus: alanine scan, flow cytometry, HEK293-T.
For assay [4], the target named is human CD33 F44A (human) (UniProt P20138). Nature of the assay: alanine scan, flow cytometry.
For the next assay, the target named is human CD33 C101A (human) (UniProt P20138). The assay can be described thus: flow cytometry on HEK293-T, alanine scan.
Another assay deals with human CD33 M120A (human) (UniProt P20138). The assay can be described thus: flow cytometry on HEK293-T, alanine scan.
In assay [5] the target is human CD33 Y129A (human) (UniProt P20138). Nature of the assay: flow cytometry on HEK293-T, alanine scan.
For assay [6], the target named is human CD33 variant Y129S (human) (UniProt P20138). The assay can be described thus: flow cytometry, IgG on cells expressing the mutant.
In a further assay the target is human CD33 V231A (human) (UniProt P20138). Nature of the assay: alanine scan, flow cytometry, HEK293-T.
The target in another assay is human CD33 V138A (human) (UniProt P20138). The assay can be described thus: flow cytometry on HEK293-T, alanine scan.
Assay [7] concerns the target human CD33 variant Y49S (human) (UniProt P20138). The assay can be described thus: flow cytometry, IgG on cells expressing the mutant.
In the next assay the target is human CD33 C41A (human) (UniProt P20138). Nature of the assay: alanine scan, flow cytometry.
The target in assay [8] is human CD33 C212A (human) (UniProt P20138). Nature of the assay: alanine scan, flow cytometry, HEK293-T.
For assay [9], the target named is human CD33 extracellular region F21L (human) (UniProt P20138). The assay can be described thus: BLI Octet, IgG captured on AHC, CD33 analyte. (Biolayer interferometry detects binding as a change in optical thickness at a sensor tip.)
Sequence of human CD33 extracellular region F21L (human) (P20138 other isoform, or with tags, fused parts or gaps F21L F21L): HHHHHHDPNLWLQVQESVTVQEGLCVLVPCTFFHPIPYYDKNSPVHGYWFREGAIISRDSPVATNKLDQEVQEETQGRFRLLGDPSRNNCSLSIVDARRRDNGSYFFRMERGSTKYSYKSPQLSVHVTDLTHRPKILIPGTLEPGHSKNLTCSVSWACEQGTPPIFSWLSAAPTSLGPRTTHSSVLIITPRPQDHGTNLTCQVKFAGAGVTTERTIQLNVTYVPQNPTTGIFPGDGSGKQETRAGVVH

Sequence of human CD33 L134R (human) (P20138 18-364 L134R limits assumed): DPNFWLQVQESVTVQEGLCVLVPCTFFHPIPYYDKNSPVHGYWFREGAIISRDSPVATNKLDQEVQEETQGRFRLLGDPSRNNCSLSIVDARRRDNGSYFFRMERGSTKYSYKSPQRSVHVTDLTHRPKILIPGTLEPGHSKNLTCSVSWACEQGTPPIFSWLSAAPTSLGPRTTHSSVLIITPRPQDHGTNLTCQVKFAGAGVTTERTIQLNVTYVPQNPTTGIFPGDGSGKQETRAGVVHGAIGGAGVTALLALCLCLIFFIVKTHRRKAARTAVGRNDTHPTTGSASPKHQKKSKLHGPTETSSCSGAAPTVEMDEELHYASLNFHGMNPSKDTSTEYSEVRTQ
Sequence of human CD33 Y129A (human) (P20138 18-364 Y129A limits assumed): as the sequence (P20138 18-364 L134R limits assumed) above, with Y112A, R117L counted along it
Sequence of human CD33 K52F (human) (P20138 18-364 K52F limits assumed): as the sequence (P20138 18-364 L134R limits assumed) above, with K35F, R117L counted along it
Sequence of human CD33 F44A (human) (P20138 18-364 F44A limits assumed): as the sequence (P20138 18-364 L134R limits assumed) above, with F27A, R117L counted along it
Sequence of human CD33 C212A (human) (P20138 18-364 C212A limits assumed): as the sequence (P20138 18-364 L134R limits assumed) above, with R117L, C195A counted along it
Sequence of human CD33 L134A (human) (P20138 18-364 L134A limits assumed): as the sequence (P20138 18-364 L134R limits assumed) above, with R117A counted along it
Sequence of human CD33 C41A (human) (P20138 18-364 C41A limits assumed): as the sequence (P20138 18-364 L134R limits assumed) above, with C24A, R117L counted along it
Sequence of human CD33 C101A (human) (P20138 18-364 C101A limits assumed): as the sequence (P20138 18-364 L134R limits assumed) above, with C84A, R117L counted along it
Sequence of human CD33 Q24A (human) (P20138 18-364 Q24A limits assumed): as the sequence (P20138 18-364 L134R limits assumed) above, with Q7A, R117L counted along it
Sequence of human CD33 V231A (human) (P20138 18-364 V231A limits assumed): as the sequence (P20138 18-364 L134R limits assumed) above, with R117L, V214A counted along it
Sequence of human CD33 V25A (human) (P20138 18-364 V25A limits assumed): as the sequence (P20138 18-364 L134R limits assumed) above, with V8A, R117L counted along it
Sequence of human CD33 variant Y49S (human) (P20138 18-364 Y49S limits assumed): as the sequence (P20138 18-364 L134R limits assumed) above, with Y32S, R117L counted along it
Sequence of human CD33 V138A (human) (P20138 18-364 V138A limits assumed): as the sequence (P20138 18-364 L134R limits assumed) above, with R117L, V121A counted along it
Sequence of human CD33 Q26A (human) (P20138 18-364 Q26A limits assumed): as the sequence (P20138 18-364 L134R limits assumed) above, with Q9A, R117L counted along it
Sequence of human CD33 M120A (human) (P20138 18-364 M120A limits assumed): as the sequence (P20138 18-364 L134R limits assumed) above, with M103A, R117L counted along it
Sequence of human CD33 variant Y129S (human) (P20138 18-364 Y129S limits assumed): as the sequence (P20138 18-364 L134R limits assumed) above, with Y112S, R117L counted along it

B1: Refmab #5 (antibody, human IgG1, V domains shown)
VH: QVQLVQSGAEVKKPGASVKVSCKASGYTFTNYDINWVRQAPGQGLEWIGWIYPGDGSTKYNEKFKAKATLTADTSTSTAYMELRSLRSDDTAVYYCASGYEDAMDYWGQGTTVTVSS
VL: DIQMTQSPSSLSASVGDRVTINCKASQDINSYLSWFQQKPGKAPKTLIYRANRLVDGVPSRFSGSGSGQDYTLTISSLQPEDFATYYCLQYDEFPLTFGGGTKVEIK
For B1, the Mean % WT Binding in the assay with human CD33 K52F (human) amounted to 2.5%; with human CD33 L134R (human), 5%.

B2: Refmab #6 (antibody, human IgG1, V domains shown)
VH: QVQLQQPGAEVVKPGASVKMSCKASGYTFTSYYIHWIKQTPGQGLEWVGVIYPGNDDISYNQKFQGKATLTADKSSTTAYMQLSSLTSEDSAVYYCAREVRLRYFDVWGQGTTVTVSS
VL: EIVLTQSPGSLAVSPGERVTMSCKSSQSVFFSSSQKNYLAWYQQIPGQSPRLLIYWASTRESGVPDRFTGSGSGTDFTLTISSVQPEDLAIYYCHQYLSSRTFGQGTKLEIK
For B2, the Mean % WT Binding is 16.2 % WT binding in the assay with human CD33 C212A (human) [1]; 14 % of WT with human CD33 F44A (human) [2]; 18.1 % of WT in the assay with human CD33 Q24A (human); 76.1 % of WT in the assay with human CD33 Q26A (human); 16.7 % of WT with human CD33 V25A (human); 19.5 % WT binding in the assay with human CD33 L134A (human). For the same molecule, the Mean % WT Binding came to 76.7 % WT binding with human CD33 Y129A (human) [3], 2.5% with human CD33 K52F (human) and 1% with human CD33 L134R (human).

B3: Refmab #3 (antibody, human IgG1, V domains shown)
VH: QVQLVQSGAEVKKPGSSVKVSCKASGYTFTDYNMHWVRQAPGQGLEWIGYIYPYNGGTGYNQKFKSKATITADESTNTAYMELSSLRSEDTAVYYCARGRPAMDYWGQGTLVTVSS
VL: DIQMTQSPSSLSASVGDRVTITCRASESVDNYGISFMNWFQQKPGKAPKLLIYAASNQGSGVPSRFSGSGSGTDFTLTISSLQPDDFATYYCQQSKEVPWTFGQGTKVEIK
For the molecule B3, the Mean % WT Binding was 18.9 % WT in the assay with human CD33 F44A (human) [4]; 13.6 % WT binding in the assay with human CD33 C101A (human); 15.7 % WT binding in the assay with human CD33 M120A (human); 15.6 % WT binding with human CD33 Y129A (human) [5]; 7.6 % of WT in assay [6].

B4: Refmab #4 (antibody, human IgG1, V domains shown)
VH: QVQLVQSGAEVKKPGESVKVSCKASGYTFTNYGMNWVKQAPGQGLEWMGWINTYTGEPTYADKFQGRVTMTTDTSTSTAYMEIRNLGGDDTAVYYCARWSWSDGYYVYFDYWGQGTSVTVSS
VL: DIVMTQSPDSLTVSLGERTTINCKSSQSVLDSSTNKNSLAWYQQKPGQPPKLLLSWASTRESGIPDRFSGSGSGTDFTLTIDSPQPEDSATYYCQQSAHFPITFGQGTRLEIK
On to B4, for which the Mean % WT Binding is 79.3% with human CD33 V231A (human), 54.1 % WT binding with human CD33 V138A (human) and 9.8 % of WT in assay [7].

B5: Refmab #1 (antibody, human IgG1, V domains shown)
VH: EVQLVQSGAEVKKPGSSVKVSCKASGYTITDSNIHWVRQAPGQSLEWIGYIYPYNGGTDYNQKFKNRATLTVDNPTNTAYMELSSLRSEDTAFYYCVNGNPWLAYWGQGTLVTVSS
VL: DIQLTQSPSTLSASVGDRVTITCRASESLDNYGIRFLTWFQQKPGKAPKLLMYAASNQGSGVPSRFSGSGSGTEFTLTISSLQPDDFATYYCQQTKEVPWSFGQGTKVEVK
Consider B5, for which the Mean % WT Binding came to 14 % WT in the assay with human CD33 C41A (human) and 17.2% in the assay with human CD33 C212A (human) [8]. In assay [9], this molecule yielded a % WT binding of 1.52%.

The values are drawn from US20260242735A1.
